# Test results published in publication PMC3893156.
# Where a chain is given by its changes, count along the chain named. Numbers in names are those of the source.
# B1: Phosphomannomutase 2 (wt-PMM2) (Homo sapiens) (protein)
# chain: MAAPGPALCLFDVDGTLTAPRQKITKEMDDFLQKLRQKIKIGVVGGSDFEKVQEQLGNDVVEKYDYVFPENGLVAYKDGKLLCRQNIQSHLGEALIQDLINYCLSYIAKIKLPKKRGTFIEFRNGMLNVSPIGRSCSQEERIEFYELDKKENIRQKFVADLRKEFAGKGLTFSIGGQISFDVFPDGWDKRYCLRHVENDGYKTIYFFGDKTMPGGNDHEIFTDPRTMGYSVTAPEDTRRICELLFS
# B2: Phosphomannomutase 2 (F119L-PMM2) (Homo sapiens; F119L) (protein)
# chain: B1 chain with F119L
# Experiments:
# [1] = substrate: O=P(O)(O)O[C@H]1O[C@H](CO)[C@@H](O)[C@H](O)[C@H]1O; test: Michaelis-Menten kinetics of purified enzyme; assay type: biochemical, Homo sapiens; details: Mg2+; Glc-1,6-P2 activator
# [2] = substrate: O=P(O)(O)O[C@H]1O[C@H](CO)[C@@H](O)[C@H](O)[C@@H]1O; test: Michaelis-Menten kinetics of purified enzyme; assay type: biochemical, Homo sapiens; details: Mg2+; Man-1,6-P2 activator
Protein,Km [1] [µM],Km [2] [µM]
B1,8.2 ± 1.4,16.0 ± 1.5
B2,15.5 ± 1.6,11.8 ± 1.0
